Tests used:
Experiment in all cases: cell-based or functional assay
[1] = target: HIV-1 92WR021 Env (HIV-1)
[2] = target: HIV-1 Env of isolate MG RM-C-020 (subtype C) (HIV-1)
[3] = target: HIV-1 MGRM-A-005 Env (HIV-1)
[4] = target: HIV-1 93UG077 Env (HIV-1)
[5] = target: HIV-1 Env of isolate MG RM-C-019 (subtype C) (HIV-1)
[6] = target: HIV-1 MGRM-A-011 Env (HIV-1)
[7] = target: HIV-1 MGRM-A-012 Env (HIV-1)
[8] = target: HIV-1 MGRM-AE-003 Env (HIV-1)
[9] = target: HIV-1 Env of isolate MG RM-C-022 (subtype C) (HIV-1)
[10] = target: HIV-1 MGRM-A-003 Env (HIV-1)
HIV-1 VLGCA1 Env (HIV-1) = target: HIV-1 VLGCA1 Env (HIV-1)
[11] = target: HIV-1 Env of isolate MG RM-C-028 (subtype C) (HIV-1)
[12] = target: HIV-1 92WR026 Env (HIV-1)
[13] = target: HIV-1 94UG103 Env (HIV-1)
[14] = target: HIV-1 92TH021 Env (HIV-1)
[15] = target: HIV-1 MGRM-A-002 Env (HIV-1)
[16] = target: HIV-1 MGRM-A-006 Env (HIV-1)
[17] = target: HIV-1 92UG031 Env (HIV-1)
[18] = target: HIV-1 92RW008 Env (HIV-1)
[19] = target: HIV-1 Env of isolate MG RM-C-023 (subtype C) (HIV-1)
[20] = target: HIV-1 MGRM-AG-008 Env (HIV-1)
[21] = target: HIV-1 MGRM-AG-013 Env (HIV-1)
[22] = target: HIV-1 MGRM-AG-003 Env (HIV-1)
[23] = target: HIV-1 92WR009 Env (HIV-1)
[24] = target: HIV-1 MGRM-AE-005 Env (HIV-1)
[25] = target: HIV-1 MGRM-AE-008 Env (HIV-1)
[26] = target: HIV-1 MGRM-A-010 Env (HIV-1)
[27] = target: HIV-1 MGRM-AG-001 Env (HIV-1)
[28] = target: HIV-1 Env of isolate MG RM-C-027 (subtype C) (HIV-1)
[29] = target: HIV-1 MGRM-AG-009 Env (HIV-1)
[30] = target: HIV-1 MGRM-AG-002 Env (HIV-1)
[31] = target: HIV-1 MGRM-AE-001 Env (HIV-1)
[32] = target: HIV-1 Env of isolate MG RM-C-024 (subtype C) (HIV-1)
[33] = target: HIV-1 93WR029 Env (HIV-1)
[34] = target: HIV-1 MGRM-AE-002 Env (HIV-1)
[35] = target: HIV-1 92WR024 Env (HIV-1)
[36] = target: HIV-1 Env of isolate MG RM-C-025 (subtype C) (HIV-1)
[37] = target: HIV-1 MGRM-AE-007 Env (HIV-1)
[38] = target: HIV-1 92UG037 Env (HIV-1)
[39] = target: HIV-1 MGRM-AE-006 Env (HIV-1)
[40] = target: HIV-1 MGRM-AG-005 Env (HIV-1)
[41] = target: HIV-1 MGRM-A-013 Env (HIV-1)
[42] = target: HIV-1 Env of isolate MG RM-C-026 (subtype C) (HIV-1)
[43] = target: HIV-1 92WR020 Env (HIV-1)
[44] = target: HIV-1 MGRM-A-009 Env (HIV-1)
[45] = target: HIV-1 MGRM-A-001 Env (HIV-1)
[46] = target: HIV-1 MGRM-AG-012 Env (HIV-1)
[47] = target: HIV-1 MGRM-AG-006 Env (HIV-1)
[48] = target: HIV-1 MGRM-AE-004 Env (HIV-1)
[49] = target: HIV-1 MGRM-A-007 Env (HIV-1)
[50] = target: HIV-1 MGRM-AG-011 Env (HIV-1)
[51] = target: HIV-1 94KE105 Env (HIV-1)
[52] = target: HIV-1 MGRM-A-008 Env (HIV-1)
[53] = target: HIV-1 MGRM-A-014 Env (HIV-1)
HIV-1 CMU02 Env (HIV-1) = target: HIV-1 CMU02 Env (HIV-1)
[54] = target: HIV-1 MGRM-A-004 Env (HIV-1)

Sequence of 5329_C19 (PGT-136) (antibody) (VH): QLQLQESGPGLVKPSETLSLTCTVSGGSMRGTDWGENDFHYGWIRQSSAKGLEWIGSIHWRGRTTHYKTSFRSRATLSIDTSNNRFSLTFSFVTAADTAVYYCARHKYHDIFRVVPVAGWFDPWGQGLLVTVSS
Sequence of 5329_C19 (PGT-136) (antibody) (VL): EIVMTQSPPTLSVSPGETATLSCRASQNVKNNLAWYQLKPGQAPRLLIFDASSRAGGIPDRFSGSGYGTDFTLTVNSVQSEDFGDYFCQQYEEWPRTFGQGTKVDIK

Substance: 5147_N06 (PGT-130) (antibody)
- IC50 [1]: 0.004 µg/mL
- IC50 [2]: > 50 µg/mL
- IC50 [3]: > 50 µg/mL
- IC50 [4]: 21.4 µg/mL
- IC50 [5]: 0.01 µg/mL
- IC50 [6]: > 50 µg/mL
- IC50 [7]: > 50 µg/mL
- IC50 [8]: 0.337 µg/mL
- IC50 [9]: 0.127 µg/mL
- IC50 [10]: > 50 µg/mL
- IC50 (HIV-1 VLGCA1 Env (HIV-1)): > 50 µg/mL
- IC50 [11]: > 50 µg/mL
- IC50 [12]: 0.037 µg/mL
- IC50 [13]: 1.4 µg/mL
- IC50 [14]: 0.009 µg/mL
- IC50 [15]: 0.01 µg/mL
- IC50 [16]: > 50 µg/mL
- IC50 [17]: > 50 µg/mL
- IC50 [18]: 0.089 µg/mL
- IC50 [19]: 0.151 µg/mL
- IC50 [20]: > 50 µg/mL
- IC50 [21]: 0.01 µg/mL
- IC50 [22]: 0.041 µg/mL
- IC50 [23]: 1.27 µg/mL
- IC50 [24]: 0.006 µg/mL
- IC50 [25]: > 50 µg/mL
- IC50 [26]: 0.005 µg/mL
- IC50 [27]: > 50 µg/mL
- IC50 [28]: 0.008 µg/mL
- IC50 [29]: 9.46 µg/mL
- IC50 [30]: > 50 µg/mL
- IC50 [31]: 1 µg/mL
- IC50 [32]: > 50 µg/mL
- IC50 [33]: 34.3 µg/mL
- IC50 [34]: 1.53 µg/mL
- IC50 [35]: > 50 µg/mL
- IC50 [36]: > 50 µg/mL
- IC50 [37]: 0.083 µg/mL
- IC50 [38]: 0.061 µg/mL
- IC50 [39]: 0.009 µg/mL
- IC50 [40]: 0.54 µg/mL
- IC50 [41]: > 50 µg/mL
- IC50 [42]: 0.036 µg/mL
- IC50 [43]: 0.039 µg/mL
- IC50 [44]: 0.308 µg/mL
- IC50 [45]: > 50 µg/mL
- IC50 [46]: > 50 µg/mL
- IC50 [47]: 0.009 µg/mL
- IC50 [48]: 2.43 µg/mL
- IC50 [49]: > 50 µg/mL
- IC50 [50]: > 50 µg/mL
- IC50 [51]: 0.004 µg/mL
- IC50 [52]: > 50 µg/mL
- IC50 [53]: 0.161 µg/mL
- IC50 (HIV-1 CMU02 Env (HIV-1)): > 50 µg/mL
- IC50 [54]: > 50 µg/mL

Substance: 5329_C19 (PGT-136) (antibody)
- IC50 [1]: > 50 µg/mL
- IC50 [2]: > 50 µg/mL
- IC50 [3]: > 50 µg/mL
- IC50 [4]: > 50 µg/mL
- IC50 [5]: 20.1 µg/mL
- IC50 [6]: > 50 µg/mL
- IC50 [7]: > 50 µg/mL
- IC50 [8]: > 50 µg/mL
- IC50 [9]: > 50 µg/mL
- IC50 [10]: > 50 µg/mL
- IC50 (HIV-1 VLGCA1 Env (HIV-1)): > 50 µg/mL
- IC50 [11]: 33.7 µg/mL
- IC50 [12]: > 50 µg/mL
- IC50 [13]: > 50 µg/mL
- IC50 [14]: > 50 µg/mL
- IC50 [15]: > 50 µg/mL
- IC50 [16]: > 50 µg/mL
- IC50 [17]: > 50 µg/mL
- IC50 [18]: > 50 µg/mL
- IC50 [19]: 3.2 µg/mL
- IC50 [20]: > 50 µg/mL
- IC50 [21]: > 50 µg/mL
- IC50 [22]: > 50 µg/mL
- IC50 [23]: > 50 µg/mL
- IC50 [24]: > 50 µg/mL
- IC50 [25]: > 50 µg/mL
- IC50 [26]: > 50 µg/mL
- IC50 [27]: > 50 µg/mL
- IC50 [28]: > 50 µg/mL
- IC50 [29]: > 50 µg/mL
- IC50 [30]: > 50 µg/mL
- IC50 [31]: > 50 µg/mL
- IC50 [32]: > 50 µg/mL
- IC50 [33]: > 50 µg/mL
- IC50 [34]: > 50 µg/mL
- IC50 [35]: > 50 µg/mL
- IC50 [36]: > 50 µg/mL
- IC50 [37]: > 50 µg/mL
- IC50 [38]: > 50 µg/mL
- IC50 [39]: > 50 µg/mL
- IC50 [40]: > 50 µg/mL
- IC50 [41]: > 50 µg/mL
- IC50 [42]: 0.006 µg/mL
- IC50 [43]: 2.33 µg/mL
- IC50 [44]: > 50 µg/mL
- IC50 [45]: > 50 µg/mL
- IC50 [46]: > 50 µg/mL
- IC50 [47]: 29.1 µg/mL
- IC50 [48]: > 50 µg/mL
- IC50 [49]: > 50 µg/mL
- IC50 [50]: > 50 µg/mL
- IC50 [51]: > 50 µg/mL
- IC50 [52]: > 50 µg/mL
- IC50 [53]: > 50 µg/mL
- IC50 (HIV-1 CMU02 Env (HIV-1)): > 50 µg/mL
- IC50 [54]: > 50 µg/mL
